“Also recorded” adds a separate entry of the source.
Experiment: Safety and tolerability (TEAEs, NCI CTCAE v4.0, DLT)
Assay type: in vivo, human (Japanese patients)
Method: Safety was evaluated based on adverse events, laboratory tests, vital signs, physical examination, arterial oxygen saturation (SpO2), 12-lead electrocardiogram (ECG), body weight, and Eastern Cooperative Oncology Group (ECOG) performance status. Toxicity was evaluated according to the NCI CTCAE criteria version 4.0 14). Blood count and liver and kidney biochemistry examinations were performed just prior to the treatment and 5 days, 2, 4, 6, and 8 weeks after the first administration (Course 1). In addition, the examinations were performed the second, third, fourth administration (Courses 2, 3, 4), and as per routine clinical follow-up thereafter.
Course 2 treatment and subsequent courses were initiated for subjects who completed the dose-limiting toxicity (DLT) observation period (up to Day 56 of Course 1) without experiencing DLT and who met the eligibility criteria. […] The study treatment was considered tolerable when the number of subjects who experienced DLT was zero or one per six subjects. The appropriateness of DLT, as assessed by the investigator or sub-investigator, was confirmed by the clinical trial medical expert. All adverse events and serious adverse events, reported spontaneously or non-spontaneously, were collected during the study.

[1] = TEAE by severity, n = 6, CTCAE v4.0, 4 × 7.4 GBq + amino acid solution + octreotide LAR

C[C@@H](O)[C@H](NC(=O)[C@@H]1CSSC[C@H](NC(=O)[C@@H](Cc2ccccc2)NC(=O)CN2CCN(CC(=O)O)CCN(CC(=O)O)CCN(CC(=O)O)CC2)C(=O)N[C@@H](Cc2ccc(O)cc2)C(=O)N[C@H](Cc2c[nH]c3ccccc23)C(=O)N[C@@H](CCCCN)C(=O)N[C@@H]([C@@H](C)O)C(=O)N1)C(=O)O [177Lu-DOTATATE, ^177Lu-DOTA^0-Tyr^3-octreotate, metal not drawn]
Dose-limiting toxicities (DLT) (DLT observation period up to Day 56 of Course 1, n = 6): no dose-limiting toxicities; also recorded: no DLT | ALT increased, Grade 1 [1]: 1 (16.7) n (%) | ALT increased, Grade 2 [1]: 0 n (%) | ALT increased, Grade 3 [1]: 0 n (%) | ALT increased, Grade 4 [1]: 0 n (%) | AST increased, Grade 1 [1]: 1 (16.7) n (%) | AST increased, Grade 2 [1]: 0 n (%) | AST increased, Grade 3 [1]: 0 n (%) | AST increased, Grade 4 [1]: 0 n (%) | Abdominal distension, Grade 1 [1]: 3 (50.0) n (%) | Abdominal distension, Grade 2 [1]: 0 n (%) | Abdominal distension, Grade 3 [1]: 0 n (%) | Abdominal distension, Grade 4 [1]: 0 n (%) | Abdominal pain, Grade 1 [1]: 1 (16.7) n (%) | Abdominal pain, Grade 2 [1]: 0 n (%) | Abdominal pain, Grade 3 [1]: 0 n (%) | Abdominal pain, Grade 4 [1]: 0 n (%) | All treatment emergent adverse events (TEAEs), Grade 1 [1]: 0 n (%) | All treatment emergent adverse events (TEAEs), Grade 2 [1]: 4 (66.7) n (%) | All treatment emergent adverse events (TEAEs), Grade 3 [1]: 2 (33.3) n (%) | All treatment emergent adverse events (TEAEs), Grade 4 [1]: 0 n (%) | Alopecia, Grade 1 [1]: 3 (50.0) n (%) | Alopecia, Grade 2 [1]: 0 n (%) | Alopecia, Grade 3 [1]: 0 n (%) | Alopecia, Grade 4 [1]: 0 n (%) | Blood and lymphatic system disorders (SOC), Grade 1 [1]: 0 n (%) | Blood and lymphatic system disorders (SOC), Grade 2 [1]: 1 (16.7) n (%) | Blood and lymphatic system disorders (SOC), Grade 3 [1]: 2 (33.3) n (%) | Blood and lymphatic system disorders (SOC), Grade 4 [1]: 0 n (%) | CPK increased, Grade 1 [1]: 0 n (%) | CPK increased, Grade 2 [1]: 1 (16.7) n (%) | CPK increased, Grade 3 [1]: 0 n (%) | CPK increased, Grade 4 [1]: 0 n (%) | Chest discomfort, Grade 1 [1]: 1 (16.7) n (%) | Chest discomfort, Grade 2 [1]: 0 n (%) | Chest discomfort, Grade 3 [1]: 0 n (%) | Chest discomfort, Grade 4 [1]: 0 n (%) | Chest pain, Grade 1 [1]: 1 (16.7) n (%) | Chest pain, Grade 2 [1]: 0 n (%) | Chest pain, Grade 3 [1]: 0 n (%) | Chest pain, Grade 4 [1]: 0 n (%) | Cholesterol increased, Grade 1 [1]: 0 n (%) | Cholesterol increased, Grade 2 [1]: 1 (16.7) n (%) | Cholesterol increased, Grade 3 [1]: 0 n (%) | Cholesterol increased, Grade 4 [1]: 0 n (%) | Constipation, Grade 1 [1]: 2 (33.3) n (%) | Constipation, Grade 2 [1]: 0 n (%) | Constipation, Grade 3 [1]: 0 n (%) | Constipation, Grade 4 [1]: 0 n (%) | Creatinine increased, Grade 1 [1]: 1 (16.7) n (%) | Creatinine increased, Grade 2 [1]: 0 n (%) | Creatinine increased, Grade 3 [1]: 0 n (%) | Creatinine increased, Grade 4 [1]: 0 n (%) | Decreased appetite, Grade 1 [1]: 3 (50.0) n (%) | Decreased appetite, Grade 2 [1]: 1 (16.7) n (%) | Decreased appetite, Grade 3 [1]: 0 n (%) | Decreased appetite, Grade 4 [1]: 0 n (%) | Diarrhea, Grade 1 [1]: 3 (50.0) n (%) | Diarrhea, Grade 2 [1]: 2 (33.3) n (%) | Diarrhea, Grade 3 [1]: 0 n (%) | Diarrhea, Grade 4 [1]: 0 n (%) | Dizziness, Grade 1 [1]: 1 (16.7) n (%) | Dizziness, Grade 2 [1]: 0 n (%) | Dizziness, Grade 3 [1]: 0 n (%) | Dizziness, Grade 4 [1]: 0 n (%) | Dysgeusia, Grade 1 [1]: 0 n (%) | Dysgeusia, Grade 2 [1]: 1 (16.7) n (%) | Dysgeusia, Grade 3 [1]: 0 n (%) | Dysgeusia, Grade 4 [1]: 0 n (%) | Dyshidrotic eczema, Grade 1 [1]: 0 n (%) | Dyshidrotic eczema, Grade 2 [1]: 1 (16.7) n (%) | Dyshidrotic eczema, Grade 3 [1]: 0 n (%) | Dyshidrotic eczema, Grade 4 [1]: 0 n (%) | Gastrointestinal disorders (SOC), Grade 1 [1]: 4 (66.7) n (%) | Gastrointestinal disorders (SOC), Grade 2 [1]: 2 (33.3) n (%) | Gastrointestinal disorders (SOC), Grade 3 [1]: 0 n (%) | Gastrointestinal disorders (SOC), Grade 4 [1]: 0 n (%) | General disorders and administration site conditions (SOC), Grade 1 [1]: 5 (83.3) n (%) | General disorders and administration site conditions (SOC), Grade 2 [1]: 0 n (%) | General disorders and administration site conditions (SOC), Grade 3 [1]: 0 n (%) | General disorders and administration site conditions (SOC), Grade 4 [1]: 0 n (%) | Gingivitis, Grade 1 [1]: 1 (16.7) n (%) | Gingivitis, Grade 2 [1]: 0 n (%) | Gingivitis, Grade 3 [1]: 0 n (%) | Gingivitis, Grade 4 [1]: 0 n (%) | Headache, Grade 1 [1]: 1 (16.7) n (%) | Headache, Grade 2 [1]: 0 n (%) | Headache, Grade 3 [1]: 0 n (%) | Headache, Grade 4 [1]: 0 n (%) | Hyperuricemia, Grade 1 [1]: 1 (16.7) n (%) | Hyperuricemia, Grade 2 [1]: 0 n (%) | Hyperuricemia, Grade 3 [1]: 0 n (%) | Hyperuricemia, Grade 4 [1]: 0 n (%) | Hypocalcemia, Grade 1 [1]: 0 n (%) | Hypocalcemia, Grade 2 [1]: 1 (16.7) n (%) | Hypocalcemia, Grade 3 [1]: 0 n (%) | Hypocalcemia, Grade 4 [1]: 0 n (%) | Immune system disorders (SOC), Grade 1 [1]: 1 (16.7) n (%) | Immune system disorders (SOC), Grade 2 [1]: 0 n (%) | Immune system disorders (SOC), Grade 3 [1]: 0 n (%) | Immune system disorders (SOC), Grade 4 [1]: 0 n (%) | Infections and infestations (SOC), Grade 1 [1]: 2 (33.3) n (%) | Infections and infestations (SOC), Grade 2 [1]: 1 (16.7) n (%) | Infections and infestations (SOC), Grade 3 [1]: 0 n (%) | Infections and infestations (SOC), Grade 4 [1]: 0 n (%) | Investigations (SOC), Grade 1 [1]: 1 (16.7) n (%) | Investigations (SOC), Grade 2 [1]: 4 (66.7) n (%) | Investigations (SOC), Grade 3 [1]: 0 n (%) | Investigations (SOC), Grade 4 [1]: 0 n (%) | Leukopenia, Grade 1 [1]: 0 n (%) | Leukopenia, Grade 2 [1]: 2 (33.3) n (%) | Leukopenia, Grade 3 [1]: 0 n (%) | Leukopenia, Grade 4 [1]: 0 n (%) | Lymphopenia, Grade 1 [1]: 0 n (%) | Lymphopenia, Grade 2 [1]: 1 (16.7) n (%) | Lymphopenia, Grade 3 [1]: 2 (33.3) n (%) | Lymphopenia, Grade 4 [1]: 0 n (%) | Malaise, Grade 1 [1]: 4 (66.7) n (%) | Malaise, Grade 2 [1]: 0 n (%) | Malaise, Grade 3 [1]: 0 n (%) | Malaise, Grade 4 [1]: 0 n (%) | Metabolism and nutrition disorders (SOC), Grade 1 [1]: 3 (50.0) n (%) | Metabolism and nutrition disorders (SOC), Grade 2 [1]: 2 (33.3) n (%) | Metabolism and nutrition disorders (SOC), Grade 3 [1]: 0 n (%) | Metabolism and nutrition disorders (SOC), Grade 4 [1]: 0 n (%) | Musculoskeletal and connective tissue disorders (SOC), Grade 1 [1]: 1 (16.7) n (%) | Musculoskeletal and connective tissue disorders (SOC), Grade 2 [1]: 0 n (%) | Musculoskeletal and connective tissue disorders (SOC), Grade 3 [1]: 0 n (%) | Musculoskeletal and connective tissue disorders (SOC), Grade 4 [1]: 0 n (%) | Musculoskeletal pain, Grade 1 [1]: 1 (16.7) n (%) | Musculoskeletal pain, Grade 2 [1]: 0 n (%) | Musculoskeletal pain, Grade 3 [1]: 0 n (%) | Musculoskeletal pain, Grade 4 [1]: 0 n (%) | Nasopharyngitis, Grade 1 [1]: 2 (33.3) n (%) | Nasopharyngitis, Grade 2 [1]: 0 n (%) | Nasopharyngitis, Grade 3 [1]: 0 n (%) | Nasopharyngitis, Grade 4 [1]: 0 n (%) | Nausea, Grade 1 [1]: 3 (50.0) n (%) | Nausea, Grade 2 [1]: 0 n (%) | Nausea, Grade 3 [1]: 0 n (%) | Nausea, Grade 4 [1]: 0 n (%) | Nervous system disorders (SOC), Grade 1 [1]: 3 (50.0) n (%) | Nervous system disorders (SOC), Grade 2 [1]: 1 (16.7) n (%) | Nervous system disorders (SOC), Grade 3 [1]: 0 n (%) | Nervous system disorders (SOC), Grade 4 [1]: 0 n (%) | Decreased appetite, frequency (all grades) (TEAE, n = 6): 66.7% | Diarrhea, frequency (all grades) (TEAE, n = 6): 83.3% | Leukopenia, frequency (all grades) (TEAE, n = 6): 33.3% | Lymphopenia, frequency (all grades) (TEAE, n = 6): 50% | Malaise, frequency (all grades) (TEAE, n = 6): 66.7% | Nausea, frequency (all grades) (TEAE, n = 6): 50% | Thrombocytopenia, frequency (all grades) (TEAE, n = 6): 33.3% | Lymphocyte, erythrocyte, and leukocyte counts (after each treatment, n = 6): gradually decreased | Abdominal distension, frequency (all grades) (in vivo): 50% | Alopecia, frequency (all grades) (in vivo): 50% | Blood creatinine level increased, frequency (in vivo): 16.7% | Severe infections (in vivo): no severe infections | Severe lymphopenia during the follow-up period, frequency (in vivo): 16.7% | Secondary hematological malignant diseases (n = 6): no secondary hematological malignant diseases | Severe (grade ≥ 3) adverse events associated with non-hematological toxicities (n = 6): no severe (grade ≥ 3) adverse events
